One test deals with T1, rat CXCL1 (rat, UniProt P14095 25-96, limits assumed).
T1 sequence (looked up): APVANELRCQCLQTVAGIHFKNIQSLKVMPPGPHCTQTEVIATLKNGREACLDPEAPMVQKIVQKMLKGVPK
Put plainly: immunoblot strip (the text does not name the assay); 10, 20 and 30 ng of CXCL1 of each species loaded.

The next test deals with T2, mouse CXCL1 (mouse, UniProt P12850 25-96, limits assumed).
T2 sequence (looked up): T1 sequence (looked up) with V3I, V15M, F20L, M29L, P31S, M58L
The test is described as above.

The target of test [1] is T3, recombinant human CXCL1 protein (human, UniProt P09341 35-107).
T3 construct: also called human chemokine CXCL1; soluble recombinant human CXCL1
T3 sequence: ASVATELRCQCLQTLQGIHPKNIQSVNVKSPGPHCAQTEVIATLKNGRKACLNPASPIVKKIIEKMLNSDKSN
Put plainly: apparent affinity-binding constant, in serum 1:40 dilution; method not stated; serum, 1:40 dilution.

The target in test [2] is T3, recombinant human CXCL1 protein. Put plainly: apparent KD from the absorbance (450 nm) curve in human serum diluted 1:4.
Test [3] shares this target. Put plainly: apparent affinity-binding constant, in PBS; method not stated; in PBS.
For test [4] the target is unchanged. Put plainly: ELISA, human CXCL1 coated 30 ng per well, IgG 1/10 dilute original, donkey anti-human HRP, TMB. The protocol: The human CXCL1 protein was coated onto 96-well, 30 ng for well at 4° C. overnight. The plate was blocked by 3% skim milk in PBS 2 h at room temperature. The plate was washed 3 times with PBST and applied anti-human CXCL1 humanized version IgG antibodies were diluted 1/100 and 1/10 in PBS and subjected into antigen coated plate for 1 h at room temperature. The donkey anti-human monoclonal antibody with HRP conjugate antibody was diluted 1/3000 and applied for 45 min at room temperature, afterwards washed 3 times with PBST and developed with TMB solution.

Numbering of substitutions follows the chain as printed.

B1: anti-CXCL1 neutralizing monoclonal mouse antibody (HL2401) (antibody, V domains shown)
VH: EVKLVESGAELVKPGASVKLSCKASGYTFTSYYIYWVKQRPGQGLEWIGEIDPSHGGPTFNEKFKNKATLTVDKSSSTAYMQLSSLTSDDSAVYYCTRESGTGAMDYWGQGTTLTVSS
VL: DIVLTQSPASLAVSLGQRATISCKASQSVDYDGDSYVNWYQQKPGQPPKLLIYAASNLESRIPARFSGSGSGTDFTLNILPVEEDDGATYYCQQSSEDPWTFGGGTKLEIKR
notes: also called CXCL1 mAb (HL2401); mouse anti-human CXCL1 antibody HL2401
B1: the binding result with rat CXCL1 and with mouse CXCL1 was “no binding (tested: 30 ng)” each time. Besides, the Kd turned out to be 0.252 µg/mL in test [1], 0.387 µg/mL in test [2] and 0.176 µg/mL in test [3].

B2: Hum2401 IgG antibody (antibody, V domains shown)
VH: QVQLVESGGGLVQPGGSLRLSCKASGYTFTSYYIYWVRQAPGKGLEWIGEIDPSHGGPTFNEKFKNRFTISRDNSKNTLYLQMNSLRAEDTAVYYCTRESGTGAMDYWGQGTLVTVSS
VL: DIQMTQSPSSLSASVGDRATISCKASQSVDYDGDSYVNWYQQKPGKAPKLLIYAASNLESGIPSRFSGSGSGTDFTLTISSLQPEDFATYYCQQSSEDPWTFGQGTKVEIKR
notes: also called Hum2401 Ab; Pcmvdhfr-Hum2401(H+L)
Regarding B2, the ELISA signals in test [4] stood at 2.1.

The values above are taken from patent publication US20240018229A1 (published 2024).
